Laboratory results from patent US20170247475A1 (Boehringer Ingelheim, published 2017).

T1: human PIGF (human, UniProt P49763-2 21-149, limits assumed)
T1 construct: also called hPIGF; PLGF
T1 sequence (looked up): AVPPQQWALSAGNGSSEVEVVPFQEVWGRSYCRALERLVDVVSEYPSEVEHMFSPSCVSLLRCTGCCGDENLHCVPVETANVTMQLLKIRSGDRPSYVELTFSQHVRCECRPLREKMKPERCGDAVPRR

T2: recombinant human VEGF121 (human, UniProt P15692-9 27-147)
T2 construct: also called rhVEGF121; hVEGF121
T2 sequence (looked up): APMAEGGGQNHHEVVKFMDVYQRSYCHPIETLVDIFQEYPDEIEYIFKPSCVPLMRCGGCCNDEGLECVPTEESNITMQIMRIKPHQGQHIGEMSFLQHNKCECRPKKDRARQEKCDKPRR

T3: human VEGF-D (human, UniProt O43915 93-201)
T3 construct: also called hVEGF-D
T3 sequence (looked up): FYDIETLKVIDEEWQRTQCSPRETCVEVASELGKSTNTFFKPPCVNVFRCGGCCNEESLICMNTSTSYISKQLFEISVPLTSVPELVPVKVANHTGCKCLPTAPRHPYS

T4: human VEGF-B (human, UniProt P49765-2 22-188, limits assumed)
T4 construct: also called hVEGF-B
T4 sequence (looked up): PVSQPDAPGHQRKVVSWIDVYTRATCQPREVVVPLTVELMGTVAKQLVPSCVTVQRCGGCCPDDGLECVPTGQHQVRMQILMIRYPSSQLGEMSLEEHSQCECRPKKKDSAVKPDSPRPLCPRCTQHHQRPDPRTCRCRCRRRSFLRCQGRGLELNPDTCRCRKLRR

T5: human VEGF-C (human, UniProt P49767 103-227)
T5 construct: also called hVEGF-C
T5 sequence (looked up): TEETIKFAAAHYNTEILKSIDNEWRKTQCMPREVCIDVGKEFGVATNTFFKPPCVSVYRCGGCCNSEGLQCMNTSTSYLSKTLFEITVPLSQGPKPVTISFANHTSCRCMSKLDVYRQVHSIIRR

B1: VEGFBII010 (VHH)
chain: EVQLVESGGGLVQTGDSLRLSCEVSGRTFSSYSMGWFRQAQGKEREFVVAISKGGYKYDSVSLEGRFTISKDNAKNTVYLQINSLKPEDTAVYYCASSRAYGSSRLRLADTYEYWGQGTQVTVSSGGGGSGGGGSGGGGSGGGGSGGGGSGGGGSGGGGSEVQLVESGGGLVQTGDSLRLSCEVSGRTFSSYSMGWFRQAQGKEREFVVAISKGGYKYDSVSLEGRFTISKDNAKNTVYLQINSLKPEDTAVYYCASSRAYGSSRLRLADTYEYWGQGTQVTVSS
notes: bivalent VHH in one chain; also called VEGFBII23B04-35GS-23B04; homodimeric VEGFBII23B04
B2: VEGFBII022 (VHH)
chain: EVQLVESGGGLVQTGDSLRLSCEVSGRTFSSYSMGWFRQAQGKEREFVVAISKGGYKYDSVSLEGRFTISKDNAKNTVYLQINSLKPEDTAVYYCASSRAYGSSRLRLADTYEYWGQGTQVTVSSGGGGSGGGSEVQLVESGGGLVQPGGSLRLSCVASGIRFMSMAWYRQAPGKHRELVARISSGGTTAYVDSVKGRFTISRDNSKNTVYLQMNSLKAEDTAVYYCNTFSSRPNPWGAGTQVTVSS
notes: biparatopic bivalent VHH in one chain; also called VEGFBII23B04-9GS-5B05
B3: recombinant human VEGF109 (ligand, UniProt P15692 207-315, looked up)
chain: APMAEGGGQNHHEVVKFMDVYQRSYCHPIETLVDIFQEYPDEIEYIFKPSCVPLMRCGGCCNDEGLECVPTEESNITMQIMRIKPHQGQHIGEMSFLQHNKCECRPKKD
notes: also called rhVEGF109
B4: recombinant mouse VEGF164 (ligand, UniProt Q00731-2 27-190, looked up)
chain: APTTEGEQKSHEVIKFMDVYQRSYCRPIETLVDIFQEYPDEIEYIFKPSCVPLMRCAGCCNDEALECVPTSESNITMQIMRIKPHQSQHIGEMSFLQHSRCECRPKKDRTKPENHCEPCSERRKHLFVQDPQTCKCSCKNTDSRCKARQLELNERTCRCDKPRR
notes: biotinylated in the mVEGFR2 AlphaScreen; also called rmVEGF164; mVEGF164
B5: KLH conjugated VEGF165 (ligand, human, UniProt P15692-4 27-191, looked up)
chain: APMAEGGGQNHHEVVKFMDVYQRSYCHPIETLVDIFQEYPDEIEYIFKPSCVPLMRCGGCCNDEGLECVPTEESNITMQIMRIKPHQGQHIGEMSFLQHNKCECRPKKDRARQENPCGPCSERRKHLFVQDPQTCKCSCKNTDSRCKARQLELNERTCRCDKPRR
modifications: conjugated to mariculture keyhole limpet hemocyanin (mcKLH) with EDC
notes: also called VEGF165-KLH

What was measured:
[1] = target: T6, recombinant human VEGF165 (human, UniProt P15692-4 27-191); assay: ka1; SPR Biacore T100, hVEGF165 on chip, Two State Reaction model
T6 construct: also called hVEGF165; rhVEGF165
Protocol: (§1) Samples are injected for 2 min and allowed to dissociate up to 20 min at a flow rate of 45 μI/min. In between sample injections, the chip surface is regenerated with 100 mM HCl. HBS-EP+(Hepes buffer pH7.4+EDTA) is used as running buffer. Binding curves are fitted using a Two State Reaction model by Biacore T100 Evaluation Software v2.0.1.
(§2) ^{(a)}KD = kd1/kₐ₁ * (kd2/(kd2 + kₐ₂)) ^{(b)}Curves are fitted using a Two State Reaction model by Biacore T100 Evaluation Software v2.0.1

[2] = target: T6, recombinant human VEGF165; assay: VEGF165/hVEGFR1-Fc competition AlphaScreen
Protocol: (§3) Finally, streptavidin donor beads (20 μg/ml) are added and after 1 hour of incubation in the dark, fluorescence is measured on the Envision microplate reader.

VEGF [3] = assay: cell-based or functional assay
human PIGF = target: T1, human PIGF; assay: binding ELISA on coated PIGF
Protocol: (§4) Binding to VEGFB, VEGFC, VEGFD and PIGF is assessed via a solid phase binding ELISA. In brief, VEGFB, VEGFC, VEGFD and PIGF (R&D Systems, Minneapolis, Minn., USA) are coated overnight at 4° C. at 1 μg/mL in a 96-well MaxiSorp plate (Nunc, Wiesbaden, Germany). Wells are blocked with a casein solution (1% in PBS). […] As positive controls serial dilutions of the appropriate receptors are taken along and detected with horseradish peroxidase (HRP)-conjugated goat anti-human IgG, Fc specific antibody (Jackson Immuno Research Laboratories Inc., West Grove, Pa., USA) and a subsequent enzymatic reaction in the presence of the substrate TMB (3,3′,5,5′-tetramentylbenzidine) (Pierce, Rockford, Ill., USA).

[4] = target: T2, recombinant human VEGF121; assay: binding ELISA, coated rhVEGF121
Protocol: Binding to recombinant human VEGF121 is assessed via a solid phase binding ELISA. Briefly, recombinant human VEGF121 (R&D Systems, Minneapolis, Minn., USA) is coated overnight at 4° C. at 1 μg/mL in a 96-well MaxiSorp plate (Nunc, Wiesbaden, Germany). Wells are blocked with a casein solution (1% in PBS).

human VEGF-D [5] = target: T3, human VEGF-D; assay: binding ELISA on coated VEGF-D
Protocol: as §4

[6] = target: B4; assay: binding ELISA on coated mouse VEGF164
Protocol: (§5) Cross-reactivity to mouse VEGF164 is determined using a binding ELISA. […] Wells are blocked with a casein solution (1% in PBS). […] A mouse VEGF164 reactive mAb is included as positive control.

VEGF [7] = assay: cell-based or functional assay; remark: listed apart in the source
human VEGF-B = target: T4, human VEGF-B; assay: binding ELISA on coated VEGFB
Protocol: as §4

[8] = target: T6, recombinant human VEGF165; assay: binding ELISA, coated rhVEGF165
[9] = target: T6, recombinant human VEGF165; assay: SPR Biacore T100, hVEGF165 on chip, Two State Reaction model
Protocol: as §1, §2

[10] = target: T6, recombinant human VEGF165; assay: VEGF165/hVEGFR1-Fc competition ELISA
[11] = target: T6, recombinant human VEGF165; assay: hVEGF165/hVEGFR2-Fc competition ELISA
[12] = target: T6, recombinant human VEGF165; assay: kd1; SPR Biacore T100, hVEGF165 on chip, Two State Reaction model
Protocol: as §1, §2

human VEGF-C = target: T5, human VEGF-C; assay: binding ELISA on coated VEGFC
[13] = target: T6, recombinant human VEGF165; assay: hVEGF165/hVEGFR2-Fc competition AlphaScreen
Protocol: as §3

[14] = target: T6, recombinant human VEGF165; assay: SPR Biacore T100, Two State Reaction model; KD = kd1/ka1 * (kd2/(kd2 + ka2))
Protocol: as §1, §2

human VEGF-D [15] = target: T3, human VEGF-D; assay: binding ELISA on coated VEGF D
Protocol: as §4

[16] = target: T6, recombinant human VEGF165; assay: VEGF/VEGFR2 competition AlphaScreen
Protocol: as §3

[17] = target: T6, recombinant human VEGF165; assay: VEGF/VEGFR1 competition AlphaScreen
Protocol: as §3

[18] = target: B4; assay: binding ELISA, coated rmVEGF164
Protocol: as §5

[19] = target: B4; assay: mVEGF164/mVEGFR2-hFc competition AlphaScreen
Protocol: Finally, streptavidin donor beads (20 μg/ml) are added and after 1 hour of incubation fluorescence is measured on the Envision microplate reader.

human VEGFR2-Fc chimera = target: T7, human VEGFR2-Fc chimera (human, UniProt P35968 20-764); assay: ELISA, coated VEGF109
T7 construct: bought (R&D Systems); also called hVEGFR2-Fc; VEGFR2-huFc
Protocol: (§6) Expression is induced by addition of 1 mM IPTG and allowed to continue for 4 hours at 37° C. Cells are harvested by centrifugation and lysed by sonication of the cell pellet. Inclusion bodies are isolated by centrifugation. […] The refolded protein is purified by ion exchange chromatography using a MonoQ5/50GL (Amersham BioSciences) column followed by gel filtration with a Superdex75 10/300 GL column (Amersheim BioSciences). […] To this end, 1 μg/mL of recombinant human VEGF109 is immobilized overnight at 4° C. in a 96-well MaxiSorp plate (Nunc, Wiesbaden, Germany). Wells are blocked with a casein solution (1%).

human VEGFR1-Fc chimera [20] = target: T8, human VEGFR1-Fc chimera (human, UniProt P17948 27-756); assay: ELISA, coated VEGF109
T8 construct: bought (R&D Systems); also called hVEGFR1-Fc
Protocol: as §6

mouse VEGFR2-huFc = target: T9, mouse VEGFR2-huFc (mouse, UniProt P35918 20-762, limits assumed); assay: mVEGF164/mVEGFR2-hFc competition AlphaScreen, unlabelled mVEGF164 as competitor
T9 construct: also called mVEGFR2-huFc; mVEGFR2-hFc

human VEGFR1-Fc chimera [21] = target: T8, human VEGFR1-Fc chimera; assay: ELISA, coated KLH conjugated VEGF165

T8 sequence (P17948 27-756, change not shown): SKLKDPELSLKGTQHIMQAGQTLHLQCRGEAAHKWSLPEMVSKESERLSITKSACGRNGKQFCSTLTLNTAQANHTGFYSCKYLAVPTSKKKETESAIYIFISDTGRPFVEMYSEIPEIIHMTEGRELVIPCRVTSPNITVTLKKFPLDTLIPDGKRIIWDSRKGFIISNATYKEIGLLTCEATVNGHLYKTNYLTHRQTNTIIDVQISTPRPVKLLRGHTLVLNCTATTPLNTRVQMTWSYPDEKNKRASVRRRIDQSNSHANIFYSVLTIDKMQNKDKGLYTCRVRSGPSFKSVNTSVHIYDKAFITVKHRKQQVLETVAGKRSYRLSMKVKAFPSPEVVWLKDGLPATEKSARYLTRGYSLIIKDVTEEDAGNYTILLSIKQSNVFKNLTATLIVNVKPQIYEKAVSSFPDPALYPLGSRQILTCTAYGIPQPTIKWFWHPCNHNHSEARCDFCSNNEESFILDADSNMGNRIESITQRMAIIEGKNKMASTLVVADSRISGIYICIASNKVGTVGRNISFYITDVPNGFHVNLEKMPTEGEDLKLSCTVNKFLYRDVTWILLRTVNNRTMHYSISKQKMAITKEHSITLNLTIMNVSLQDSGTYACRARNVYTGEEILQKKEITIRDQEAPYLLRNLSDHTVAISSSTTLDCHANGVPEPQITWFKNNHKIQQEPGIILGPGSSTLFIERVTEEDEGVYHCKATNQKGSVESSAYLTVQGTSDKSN
T7 sequence (P35968 20-764, change not shown): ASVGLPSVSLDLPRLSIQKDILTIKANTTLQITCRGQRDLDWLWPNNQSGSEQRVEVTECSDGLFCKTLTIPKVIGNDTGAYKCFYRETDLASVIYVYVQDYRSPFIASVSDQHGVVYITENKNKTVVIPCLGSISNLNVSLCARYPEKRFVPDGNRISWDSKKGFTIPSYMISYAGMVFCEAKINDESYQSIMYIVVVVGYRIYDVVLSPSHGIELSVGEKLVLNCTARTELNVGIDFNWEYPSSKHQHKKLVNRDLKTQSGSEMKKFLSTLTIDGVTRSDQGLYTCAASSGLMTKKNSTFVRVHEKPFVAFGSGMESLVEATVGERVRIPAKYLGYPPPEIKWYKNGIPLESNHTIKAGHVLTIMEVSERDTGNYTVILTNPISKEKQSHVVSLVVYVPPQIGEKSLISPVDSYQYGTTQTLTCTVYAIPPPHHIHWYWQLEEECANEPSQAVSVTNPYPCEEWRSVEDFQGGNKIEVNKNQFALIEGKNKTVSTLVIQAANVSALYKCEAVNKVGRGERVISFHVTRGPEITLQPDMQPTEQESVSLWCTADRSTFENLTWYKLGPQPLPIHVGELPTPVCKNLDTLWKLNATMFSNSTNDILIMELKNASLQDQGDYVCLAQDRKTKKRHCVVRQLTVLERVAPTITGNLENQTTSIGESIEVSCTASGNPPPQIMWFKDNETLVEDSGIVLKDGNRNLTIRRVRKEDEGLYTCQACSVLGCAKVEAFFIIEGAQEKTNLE
T9 sequence (P35918 20-762 limits assumed): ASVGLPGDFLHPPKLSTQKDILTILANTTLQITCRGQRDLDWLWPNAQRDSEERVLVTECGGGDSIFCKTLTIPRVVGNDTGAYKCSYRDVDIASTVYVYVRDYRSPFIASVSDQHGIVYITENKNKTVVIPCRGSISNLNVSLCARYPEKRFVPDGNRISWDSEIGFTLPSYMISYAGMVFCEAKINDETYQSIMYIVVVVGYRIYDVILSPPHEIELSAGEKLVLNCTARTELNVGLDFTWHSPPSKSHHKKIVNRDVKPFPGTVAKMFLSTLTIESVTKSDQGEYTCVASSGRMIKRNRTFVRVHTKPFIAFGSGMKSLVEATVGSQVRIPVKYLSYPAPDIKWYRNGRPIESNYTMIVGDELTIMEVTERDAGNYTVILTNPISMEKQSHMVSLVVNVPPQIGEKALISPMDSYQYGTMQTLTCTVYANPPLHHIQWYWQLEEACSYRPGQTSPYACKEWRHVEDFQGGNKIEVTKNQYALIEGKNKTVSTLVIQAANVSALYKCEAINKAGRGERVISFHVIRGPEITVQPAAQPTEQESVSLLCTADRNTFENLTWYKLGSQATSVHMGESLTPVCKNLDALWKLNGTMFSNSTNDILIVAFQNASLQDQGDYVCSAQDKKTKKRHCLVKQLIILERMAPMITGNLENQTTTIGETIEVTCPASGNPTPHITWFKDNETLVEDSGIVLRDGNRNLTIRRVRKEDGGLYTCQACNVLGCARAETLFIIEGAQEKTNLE

Binder: B1
- kon [1]: 450000 M⁻¹ s⁻¹
- % inhibition [2]: 70%
- IC50 [2]: 0.021 nM
- % inhibition, VEGF HUVEC Erk phosphorylation assay (VEGF [3]): 92%
- IC50 (nM), VEGF HUVEC Erk phosphorylation assay (VEGF [3]): 0.19 nM
- binding result (human PIGF): no binding (tested: 5e-7 M)
- EC50 [4]: 0.92 nM
- binding result (human VEGF-D [5]): no binding (tested: 5e-7 M)
- binding result [6]: binds
- % inhibition, VEGF HUVEC proliferation assay (VEGF [7]): 95%
- IC50 (nM), VEGF HUVEC proliferation assay (VEGF [7]): 0.22 nM
- binding result (human VEGF-B): no binding (tested: 5e-7 M)
- EC50 [8]: 0.428 nM
- ka2 [9]: 0.029 s⁻¹
- kd2 [9]: 0.00013 s⁻¹
- % inhibition [10]: 67%
- IC50 [10]: 0.0735 nM
- % inhibition [11]: 100%
- IC50 [11]: 0.049 nM
- koff [12]: 0.017 s⁻¹
- binding result (human VEGF-C): no binding (tested: 5e-7 M)
- % inhibition [13]: 100%
- IC50 [13]: 0.016 nM
- Kd [14]: 0.16 nM

Binder: B2
- kon [1]: 1.2e+06 M⁻¹ s⁻¹
- % inhibition [2]: 98%
- IC50 [2]: 0.009 nM
- % inhibition, VEGF HUVEC Erk phosphorylation assay (VEGF [3]): 94%
- IC50 (nM), VEGF HUVEC Erk phosphorylation assay (VEGF [3]): 0.18 nM
- binding result (human PIGF): no binding (tested: 5e-7 M)
- binding result (human VEGF-D [15]): no binding (tested: 5e-7 M)
- EC50 [4]: 0.54 nM
- % inhibition, VEGF HUVEC proliferation assay (VEGF [7]): 100%
- IC50 (nM), VEGF HUVEC proliferation assay (VEGF [7]): 0.34 nM
- IC50 [16]: 7 pM
- binding result (human VEGF-B): no binding (tested: 5e-7 M)
- EC50 [8]: 0.224 nM
- ka2 [9]: 0.014 s⁻¹
- kd2 [9]: 0.00026 s⁻¹
- % inhibition [10]: 89%
- IC50 [10]: 0.225 nM
- % inhibition [11]: 100%
- IC50 [11]: 0.164 nM
- % inhibition [17]: 100%
- IC50 [17]: 8 pM
- EC50 [18]: 0.464 nM
- koff [12]: 0.0091 s⁻¹
- binding result (human VEGF-C): no binding (tested: 5e-7 M)
- IC50 [19]: 108 nM
- % inhibition [13]: 100%
- IC50 [13]: 0.007 nM
- Kd [14]: 0.14 nM

Binder: B3
- binding result (human VEGFR2-Fc chimera): binds
- binding result (human VEGFR1-Fc chimera [20]): binds

Binder: B4
- IC50 (mouse VEGFR2-huFc): 0.05 nM

Binder: B5
- binding result (human VEGFR1-Fc chimera [21]): binds
